Tested on: K4 kissing-loop RNA reporter
Assay: apparent KD of K4 kissing-loop reporter; higher = weaker reporter binding
Conditions: Eterna round: R107
Description: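 RNA-MaP round R107: designed RNA switches with theophylline, tryptophan, arginine or FMN aptamers are transcribed on-chip within common flanks. They are titrated with a labelled K4 kissing-loop RNA reporter in RNA-MaP buffer (100 mM Tris pH 7.5, 80 mM KCl, 4 mM MgCl2), without ligand or with the indicated ligand. Median apparent KD per design.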

[1] = input ligand: theophylline 20 uM
[2] = input ligand: tryptophan 2.4 mM
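Note: bound reporter read as fluorescence of individual clusters on recovered sequencing chips by microscopy, with normalized cluster intensities fitted with a binding model.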

Row | Sequence | apparent KD of K4 kissing-loop reporter (input ligand: FMN 200 uM) | apparent KD of K4 kissing-loop reporter (input ligand: arginine 13.2 mM) | apparent KD of K4 kissing-loop reporter (input ligand: none) | apparent KD of K4 kissing-loop reporter [1] | apparent KD of K4 kissing-loop reporter [2]
1 | ACGUGCACCAGUGAUGUUGGAAAAUAUGAAGGAGCGGGAGAAAGCCCAGGUAGGUCGCAUAAUAGCACGAGCCACGAAAGUGGCA | 233 nM | 145 nM | 178 nM | 141 nM | 131 nM
2 | UCUGGAGCAUAUGAUACCAGCAGUGAGAGAGAGGAAGUAUAGUGAUGUUAUAUGAGAGAAUGCCCUUGGCAGCGUGUGUAGUGGG [SSTheophylB.M] | 155 nM | 146 nM | 119 nM | 94.5 nM | 107 nM
3 | AAGCAGUCACUCGAAGCCAUCGAAGAUGGUCGAGGACCGGUACGGCCGCCACUCGGAGUGAUGUUCCGAAGACUGCAAAAUAAAA [#SwitchBubble 11] | 275 nM | 246 nM | 286 nM | 273 nM | 526 nM
4 | CUAUAAGUGCCGAGUGAUGUUCGGCCAAUACGAGGACCGGUACGGCCGCCACUCGGUCAGUCGGUGCCCACCGGGCAUGGCUGAC [Ortima] | 186 nM | 237 nM | 205 nM | 213 nM | 113 nM
5 | UGGAGUUGACGAAAAGUCAACUCCUGAGAUACCAGUGACGAAAGUCACCCUUGGCAGCUCACUGGCAGUGAUGUUGCUAAAUAAA [KL-SSTheo-A2] | 57.3 nM | 51.4 nM | 122 nM | 63.5 nM | 32.6 nM
6 | UGACUGGACUGAAGGAGCGCGCGAGACAAAGUCUCGAACUGCUAGUGAUGUUAGCAAAUAACGCAGGUAGGUCGCAGUCUAGUCU [ArgBS 11 #SwitchBubble #StaticStem #DoubleMagnet] | 135 nM | 100 nM | 137 nM | 92.3 nM | 124 nM
7 | AAGUAAUGUAUAGAUUAUAUACAUUAAACAGAGGAUAUGCAUUAUUGCAGAAGGCUGAAUGCAGUGAUGUUGCAAUAAUUAUUUA [JR_SSFMNA_Sub002] | 53.1 nM | 190 nM | 184 nM | 297 nM | 146 nM
8 | GAUUCAGUGAUGUUGGAAGGCGAGCGGGAUACCAGCGGAGACUCACGCCCUUGGCAGCCCACAUAUCCCAGGUAGAUAAUAGAUC [Same State - Theophylline A (Freestyle 7)] | 201 nM | 123 nM | 178 nM | 160 nM | 180 nM
9 | CGCCGGAAGGCGGUCGCUCCCACUCCGGAAGGAGCGCCCGGAAGGGCAGGUAGGUCGCCGGAGUGAUGUUCCGGUGGAGGGACCG [#2 Exclusion - Arginine A Attempt #10 (Inspired by Omei)] | 230 nM | 117 nM | 113 nM | 111 nM | 109 nM
10 | UAAUCCUAAUGAUAAUAAUCAAGUGGUGGACGAGGACCGGUACGGCCGCCACUCGAAAAUGCAGUGAUGUUGUAAUACGGAUAAU [Exclusion - Tryptophan A (Freestyle 3)] | 288 nM | 460 nM | 372 nM | 541 nM | 247 nM
11 | UUUGUAUAGGGAAGGAGCGUGAAUGAUAAUGAAUAUAGUGAUGUUAUAUAUAAGAAAGAAUCACAGGUAGGUCGCCCGGAUGAGU [SSArgB.L] | 432 nM | 323 nM | 477 nM | 447 nM | 356 nM
12 | AACACUCACGGAGUGAUGUUCUGGAAUAAACGAGGACCGGUACGGCCGCCACUCGAAAAUGAGUGAGUCCUACGAAAAGUAGGAC [Omei inspired 4] | 357 nM | 394 nM | 361 nM | 405 nM | 108 nM
13 | CGCCGCAACUGAAGGAGCGCGCCAGUGAUGUUGGACGGCUUUGUCAAGGAAACUGCACCGGUGCAGGUAGGUCGCAGUUCGCGGU [Dilea] | 278 nM | 291 nM | 297 nM | 253 nM | 252 nM
14 | ACGUGCACGAGUGAUGUUUGAAAAUCUGAAGGAGCGGGCGAAAGCCCAGGUAGGUCGCAGAAUAGCACGAGCCACGAAAGUGGCA | 202 nM | 272 nM | 319 nM | 142 nM | 191 nM
15 | UGACAUUGCUCAGAUACCAGACAUGAGCAUCAGCCAUGUGCCAACGUACAAAUAAUAAAUGUCCCUUGGCAGCUGAGCAAUGUCU [TheoBX 15] | 67.4 nM | 25.8 nM | 48.2 nM | 64.6 nM | 59.9 nM
16 | ACGCGCGUGCGCUGGAAAGCGCACGCGCGUCGAGGACCGGUACGGCCGCCACUCGCUCGCGCCGAGUGAUGUUCGGCCGGCGAAC [#2 SameState - Tryptophan_A Attempt #2 (HarryS)] | 342 nM | 288 nM | 303 nM | 292 nM | 645 nM
17 | GCCGUACGCAUGGAUACCAGCCGACCUGAUGUUAAGCUGGUGCCGUAGUGAUGUUACGAAGGCCCUUGGCAGCCAUGCGUACGGC | 211 nM | 147 nM | 209 nM | 176 nM | 196 nM
18 | UCCACGCUUAGAGGAUAUCGGAUUAGAGUGAUGUUCUAAAGACGCCCAGUGAUGUUGGAUGGUAUACGAGAAGGCUGUGGCGUGU [Same State FMN B GF5] | 219 nM | 539 nM | 551 nM | 622 nM | 410 nM
19 | GCGGCGGGCCAAGGAUAUAUAUUGGAGUGAUGUUGUUCAUUUAUUUGAGCUAGUGAUGUUGGUCAGAUAGAAGGUGGCCCGCCGC [whbob_Ex_FMNB__2th216] | 76.3 nM | 30.1 nM | 51.1 nM | 46.2 nM | 46.4 nM
20 | UGUCAUGGAAACAUGACCGUUAAAAUAAAUCGAGGACCGGUACGGCCGCCACUCGUAUAGCGGUCAGUGAUGUUGACUGUAGUAC [KL-SSTryp-A form2 sub12 #dotplot2>1] | 419 nM | 428 nM | 491 nM | 475 nM | 546 nM
21 | GCUAUGGUAGGAAGGAGCGCGGACGAAAUUUAUCGAGUGAUGUUCGAAUAAUUAAAUAAAACGCAGGUAGGUCGCCUACUAUAGC [Arginine B K4 26] | 101 nM | 97.5 nM | 97.5 nM | 95.5 nM | 75.7 nM
22 | GGAUGGUAGGCGGCCGCCACUAAAUGUGAACACAUACAAGCCAGUGAUGUUGGUAUGAUGGACAAUAGGACCGGGCCUAGAUAGA [Exclusion - Tryptophan B (Freestyle 7)] | 595 nM | 448 nM | 555 nM | 495 nM | 542 nM

Row | Sequence | apparent KD of K4 kissing-loop reporter (input ligand: FMN 200 uM) | apparent KD of K4 kissing-loop reporter (input ligand: arginine 13.2 mM) | apparent KD of K4 kissing-loop reporter (input ligand: none) | apparent KD of K4 kissing-loop reporter [1] | apparent KD of K4 kissing-loop reporter [2]
23 | UGAUACCAGACUGAUACCAGCCAGUGAUGUUGGCUAAGCCAAAUAGGAGUCAAAGACUCCGGCCCUUGGCAGCAGUCUGGUAUCU [TheoBX 5 #SwitchBubble #StaticStem] | 127 nM | 117 nM | 122 nM | 124 nM | 127 nM
24 | CUAUUUCGCGUGGAUACCAGCGGUCGUAAAAUGUCAGUGAUGUUGAAGAGGAAAAGAGCUCGCCCUUGGCAGCCAUUCCGCACUA [theeternabot_sameState_KL_Theo_B_34] | 591 nM | 363 nM | 568 nM | 446 nM | 399 nM
25 | CUUGGAAGGACGGCCGCCACUCGACGGAGUGAUGUUCCGUGUGGGUAGCGCAGUGAUGUUGUGUCGAGGACCGGGUCCUAGGAAU [Exclusion Tryptophan B GF 28] | 181 nM | 115 nM | 143 nM | 160 nM | 77.7 nM
26 | GGGAGUAGUGCGGCCGCCACUGUGAAAGUAGAAGAAUAUAGUGAUGUUAUAUAGGAACAAAAGAAUAGGACCGGGCAUUAGAUUU [SSTRyptB.X] | 311 nM | 260 nM | 304 nM | 299 nM | 198 nM
27 | UAAGAAUAAGUAGCAGUGAUGUUGCUACUACGAGGACCGGUACGGCCGCCACUCGAGCCGUACAAAGUAGCAACUAGUACGAAUA [(H1)-(H2)-(Trp1)-(Trp2)-(T)'-(H)'-(T)''] | 231 nM | 194 nM | 223 nM | 246 nM | 365 nM
28 | CUAUAGACCCUUCGGAUAGUGAUGUUGUCACGAGGACCGGUACGGCCGCCACUCGCUGCCACCAUACCGCUUCACGGAACGAGCA [theeternabot_exclusion_KL_Trp_A_7] | 483 nM | 429 nM | 503 nM | 599 nM | 169 nM
29 | GAUUGUGAUGGAAACAUCGCAAUCUCUGAAGGAGCGCGUGAAAACGCAGGUAGGUCGCAGAACGACAAAGACAGUGAUGUUGUCA [Ex Arginine A K4 5] | 321 nM | 263 nM | 289 nM | 298 nM | 234 nM
30 | UUUUGCUAGCGAAACGCUAGCUUAACAGAUACCAGUCGCGAAAGCGACCCUUGGCAGCUGCUGAGUGAUGUUCAGGUGAGAGUUA | 387 nM | 221 nM | 344 nM | 301 nM | 312 nM
31 | AGGGCGGAGUGAUGUUCCGGCUCCCGAUUUAAGGAUAUUGCGUAAACAAGAAGGUAAAGGCGCAGCAAUAUUAUUUCGUAAGGCG [theeternabot_exclusion_KL_FMN_A_23] | 85.5 nM | 103 nM | 93.7 nM | 111 nM | 79.1 nM
32 | CCAGUUUGAGUGAUGUUCAGGCAUUGGUACGAGGAUAUCGAGGAGUUGAGAAGGCGUACUACUCAACUAUGUAUGAAUACAUACC [FMN A Ex t2] | 224 nM | 89 nM | 125 nM | 126 nM | 116 nM
33 | GCGUCUGUCGGAAGGAGCGCACUAUGGAGUGAUGUUCCAUGACCGCACAGCUUGCGGUCAGUGCAGGUAGGUCGCCGAUAGCGUU [Diestera] | 161 nM | 157 nM | 154 nM | 190 nM | 144 nM
34 | UGUGAUGUGUAGUGUGAUGUUUUGAAGGAUACCAGAGUGUUGUUAUUCCCUUGGCAGCUUGAGUGAUGUUUGAUGUUGUUGUUGU [aawemullin] | 324 nM | 179 nM | 260 nM | 229 nM | 224 nM
35 | AAGGGCGGGACUUUCUCGCCGGAUAGAGAUACCAGCCCAGCAAUGGGCCCUUGGCAGCUCACUGACCUCAGUGAUGUUGAGGUUC [Quintege] | 310 nM | 214 nM | 213 nM | 208 nM | 185 nM
36 | AAUGCAUAGUGAAGGAGCGCGAUAAGCAGUGAUGUUGCUUAGCUAUUAUUCAUUUUUUUAACGCAGGUAGGUCGCACUUUGCAUA [JR_ExcArginiB_Sub016] | 166 nM | 142 nM | 135 nM | 148 nM | 144 nM
37 | AAGUCAUAGGCAGGAUAUGCUUAGUAUUAAGGCCAUAUAUACGUAUAGAGUGAUGUUUUGUACCAGGCAGAAGGGCUACAUCCGU [FMN B Excl V5 (+2U)] | 755 nM | 562 nM | 699 nM | 683 nM | 541 nM
38 | UAUGAAGGUGGAGGAUAUUGAUUGAACCUUGGUCAGGAGUGAUGUUCCGGGAAGCCUUGGGUUCAUCGAGAAGGCCAAGGAUAGU [Extra 2] | 139 nM | 257 nM | 254 nM | 280 nM | 238 nM
39 | GCAGUGAUGUUGCGGAUGUACAGUGGCGUGCGAGGACCGGUACGGCCGCCACUCGUACAGAACAAGCUAAUACAUCGAUAGGUGA [whbob_SS_Tryp_A_m1] | 493 nM | 294 nM | 556 nM | 516 nM | 355 nM
40 | AAGUGAUGUUGUAGUGAUGUUGUGAUGUUGCAGGAUAUAUAGUGAUGUAGAAGGGUAAGUACUGUUUUUUUUUUUGAGUGAUGUU [ookooyzrmullin] | 101 nM | 41.7 nM | 78.4 nM | 67.5 nM | 88.7 nM
41 | AAAAUAAACCAGUGAUGUUGGUGUCCGGAUACCAGCGAUAAUCAUCGCCCUUGGCAGCCGCGGACGUACAAAAUAAGUACGUCCU [MatMod 13 - Jieux - Same State - Theophylline A] | 457 nM | 271 nM | 346 nM | 310 nM | 256 nM
42 | CACAGAUCCUAAGGAUAUGGAGUGAUGUUCGCAAGUUCUUGGUGUGCAUUCAUCUGUCCUAUCAACCCAGAAGGUAGGAAGUCAC [theeternabot_exclusion_KL_FMN_B_1] | 607 nM | 516 nM | 550 nM | 993 nM | 604 nM
43 | UCUGGUAUAUCUGAUACCAGAGUAUAGUAUCAAUUGAAUAUGGAGUGAUGUUCCAUACAACUCCCUUGGCAGCAGAUCUUCCUCU [Same State Theophylline B GF 23] | 145 nM | 206 nM | 188 nM | 193 nM | 124 nM
